B1: OR4K15 (parent)
chain: GUUAACGGUCAUAGGCCAUGGAAACUAGGAGCACCAUUUCGCUGCCAGUGAAGAAAUGAACAAAGAAAAUCUGGGCCAGGCAGGCAUCAAAAGAAAUAGUCUUGCGCUCAACCAGAAAGUCUGUAAUCAUUUUAAGGGUA

Variants of: B1
Experiment: self-cleavage, relative activity (ratio to wild type); higher = more cleavage; in vitro, sequencing; the parent is a self-cleaving ribozyme

Row | Variant | self-cleavage
1 | GUUAACGGUCUUAGGCCAUGGAAACUAGGAGCACCAUUUCGCUGCCAGUGAAGAAAUGAAAAAAGAAAAUCUGGGCCAGGCAGGCAUCAAAAGAAAUAGUCUUGCGCUCAACCAGAAAGUCUGUAAUCAUUUUAAGGGUA [A11U C61A] | 1.92
2 | GUUAACGGUCAUAGGCCAUGGAAACUAGGAGCACCAUUUCGCUGCCAGUGAAGAAUUGAACAAAGAAAAUCUGGGCCAGGCAGGCAUCAAAAGAAAUAGUCUUGCGCUCAACCAGAAAGUCUGUAACCAUUUUAAGGGUA [A56U U127C] | 1.47
3 | GUUAACGGUCAUAGGCCGUGGAAACUAGGAGCACCAUUUCGCUGCCAGUGAAGAAAUGAACAAAGAAAAUCUGGGCCAGGCAGGCAUCAAAAGAAAUAGUCUUGCGCUCAACCAGAAAGUCUGGAAUCAUUUUAAGGGUA [A18G U124G] | 0.94
4 | GUUAACGGUCAUAGGCCAUGGAAACUAGGAGCACCAUUUCGCUGCCAGUGAAGAAAUGAACAAAGAAAAUCUGGGCCAGGCAGGCAUCAAAAGAAAUAGUCUUGUGCUCAUCCAGAAAGUCUGUAAUCAUUUUAAGGGUA [C105U A111U] | 0.01
5 | GUUAACGGUCAUAGGCCAUGGAAACUAGGAGCACCAUUUCGCUGCCAGUGAAGAAAUGAACGAAGAAAAUCUGGGCCAGGCAGCCAUCAAAAGAAAUAGUCUUGCGCUCAACCAGAAAGUCUGUAAUCAUUUUAAGGGUA [A62G G84C] | 0.49
6 | GUUAACGGUCAUAGGCCAUGGAAACUAGGAGCACCAUUUCGCUGCCAGUGAGGAAAUGAACAAAGAAAUUCUGGGCCAGGCAGGCAUCAAAAGAAAUAGUCUUGCGCUCAACCAGAAAGUCUGUAAUCAUUUUAAGGGUA [A52G A69U] | 1.25
7 | GUUAACGGUCAUAGGCCAUGGAAACUAGGAGCACCAUUUCGCUGCCAGUGAAGAAAUGAACAAAGAAAAUCUGGGCCAGGCAGGCAUCAAAAGAAAUAGACUUGUGCUCAACCAGAAAGUCUGUAAUCAUUUUAAGGGUA [U100A C105U] | 0.03
8 | GUUAACGGUCAUAGGCCAUGGAAGCUAGGAGCACCAUUUCGCUGCCAGUGAAGAAGUGAACAAAGAAAAUCUGGGCCAGGCAGGCAUCAAAAGAAAUAGUCUUGCGCUCAACCAGAAAGUCUGUAAUCAUUUUAAGGGUA [A24G A56G] | 1.25
9 | GUUAACGGUCAUAGGCCAUGGAAACUAGGAGCACCAUUUCGCUGCCAGUGAAGAAAUGAACAAAGAAAAUCUGGGCCAGGCAGGCAUCAAAGGAAAUAGUCUUGCGCUCAACCAGAAAGUCUGUAAUCAUUUCAAGGGUA [A92G U133C] | 1.59
10 | GUUAACGGUAAUAGGCCAUGGAAACUAGGAGCACCAUUUCGCUGCCAGUGAAGAAAUGAACAAAGAAAAUCUGGGCCAGGCAGGCAUCAAAAGAAGUAGUCUUGCGCUCAACCAGAAAGUCUGUAAUCAUUUUAAGGGUA [C10A A96G] | 1.33
11 | GUUAACGGUCAUUGGCCAUGGAAACUAGGAGCACCAUUUCGCUGCCAGUGAAGAAAUGAACUAAGAAAAUCUGGGCCAGGCAGGCAUCAAAAGAAAUAGUCUUGCGCUCAACCAGAAAGUCUGUAAUCAUUUUAAGGGUA [A13U A62U] | 1.05
12 | GUUAACGGUCAUAGGCCAUGGAAACUAGGAGCACCAUUUCGCUGCCAGUGAAGAAACGAACAAAGAAAAUCUGGGCCAGGCAGGCAUCAAAGGAAAUAGUCUUGCGCUCAACCAGAAAGUCUGUAAUCAUUUUAAGGGUA [U57C A92G] | 0.71
13 | GUUAACGGUCAUAGGCCAUGGAAACUAGGAGCACCACUUCGCUGCUAGUGAAGAAAUGAACAAAGAAAAUCUGGGCCAGGCAGGCAUCAAAAGAAAUAGUCUUGCGCUCAACCAGAAAGUCUGUAAUCAUUUUAAGGGUA [U37C C46U] | 1.33
14 | GUUAACGGUCAUAGGCCAUGGAAACUAGGAGCACCAGUUCGCUGCCAGUGAAGAGAUGAACAAAGAAAAUCUGGGCCAGGCAGGCAUCAAAAGAAAUAGUCUUGCGCUCAACCAGAAAGUCUGUAAUCAUUUUAAGGGUA [U37G A55G] | 1.07
15 | GUUAACGGUCAUAGGCCAUGGAAACUAGGAGCACCAUUUCGCUGCCAGUGAAGAAAUGAACAAAGAAAAUCUGGGCCAGGCAGGCAUCAAAAGAAAUAGUCUUGCGCUCAACCAGAAAGUCUGUAAUCAUUUUUAGGGAA [A134U U139A] | 1.59
16 | GUUAACGGUCAUAGGCCAUGGAAACUAGGAGCACCAUUUCGCUGCCAGUGAAGAAAUGAACAAAGAAAAUCUGGGCCAGACAGGCUUCAAAAGAAAUAGUCUUGCGCUCAACCAGAAAGUCUGUAAUCAUUUUAAGGGUA [G80A A86U] | 0.24
17 | GUUUACGGUCAUAGGCCAUGGAAACUAGGAGCACCAUUUCGCUGCCAGUGAAGAAAUGAACAGAGAAAAUCUGGGCCAGGCAGGCAUCAAAAGAAAUAGUCUUGCGCUCAACCAGAAAGUCUGUAAUCAUUUUAAGGGUA [A4U A63G] | 0.87
18 | CUUAACGGUCAUAGGCCAUGGAAACUAGGAGCACCAUUUCGCUGCCAGUGAAGAAAUGAACAAAGAAAAUCUGGGCCAGGCAGGCAUCAAAAGAAAUAGUCUUGCGCUCAACCAGAAAGUCUGUAAUCAUUUUAGGGGUA [G1C A135G] | 1.85
19 | GUUAACGGUCUUAGGCCGUGGAAACUAGGAGCACCAUUUCGCUGCCAGUGAAGAAAUGAACAAAGAAAAUCUGGGCCAGGCAGGCAUCAAAAGAAAUAGUCUUGCGCUCAACCAGAAAGUCUGUAAUCAUUUUAAGGGUA [A11U A18G] | 1.38
20 | GUUAACGGUCAUAGGCCAUGGAAACUAGGAGCACCAUUUCGCUGCCAGUGAAGAAAUGAACAAAGAAGAUCUGGGCCAGGCAGGCAUCAAAAGAAAUAGUCUUGCGCUCAACCGGAAAGUCUGUAAUCAUUUUAAGGGUA [A68G A114G] | 0.68
21 | GUUAACGGUCAUAGGCCAUGGAAACCAGGAGCACCAUUUCGCUGCCAGUGCAGAAAUGAACAAAGAAAAUCUGGGCCAGGCAGGCAUCAAAAGAAAUAGUCUUGCGCUCAACCAGAAAGUCUGUAAUCAUUUUAAGGGUA [U26C A51C] | 1.55

Row | Variant | self-cleavage
22 | GUUAACGGUCAUAGGCCAUGGAAACUAGGAGCACCAUCUCGCUGCCAGUGAAGUAAUGAACAAAGAAAAUCUGGGCCAGGCAGGCAUCAAAAGAAAUAGUCUUGCGCUCAACCAGAAAGUCUGUAAUCAUUUUAAGGGUA [U38C A54U] | 2.56
23 | GUUAACGGUCAUACGCCAUGGAAACUAGGAGCACCAUUUCGCUGCCAGUGGAGAAAUGAACAAAGAAAAUCUGGGCCAGGCAGGCAUCAAAAGAAAUAGUCUUGCGCUCAACCAGAAAGUCUGUAAUCAUUUUAAGGGUA [G14C A51G] | 1.01
24 | GUUAACGGUCAUAGGCCAUGGAAACUAGGAGCACCAUUUCGCUGCCAGUGAAGAAAUGAACAAAGAAAAUCUGGGCCAGGCAGGCAUCAAAAGAAAUAGUCUUGCGCUCAACCAGAAAGUCUGUAAUCAUUUUAAGGGUU [A140U] | 1.12
25 | GUUAACGGUCAUAGGCCAUGGAAACUAGGAGCACCAUUUCGCUGCCAGUGAAGAAAUGAACAAAGAAAAUCUGGGCCAGGCAGGCAUCAAAAGAAACAGUCUUGCGCUCAACAAGAAAGUCUGUAAUCAUUUUAAGGGUA [U97C C113A] | 0.04
26 | GUUAACGGUCAUAGGCCAUGGAAACUAGGAGCACCAUUUCGCUGCCAGUGAAGAAAUGAACAAAGAAAAUCUGGGCCAGGCAGGCAUCAAAAGAAAUAGUCUUGCGCUCAACUAGAAAGUCUGUAAUCAUUAUAAGGGUA [C113U U132A] | 0.06
27 | GUUAACGGUCAUAGGCCAUGGAAACUAGGAGCACCAUUUCGCUGCCAGUGAAGAAAUGAACAGAGAAAAUCUGGGCCGGGCAGGCAUCAAAAGAAAUAGUCUUGCGCUCAACCAGAAAGUCUGUAAUCAUUUUAAGGGUA [A63G A78G] | 0.31
28 | GUUAACGGUCAUAGGCCAUGGAAACUAGGAGCACCAUUUCGCUGCCAGUGAAGAAAUGAACAAAGAAAAUCUGGGCCAGGCAGGCAUCAAAAGAGAUAGUCUUGCGCUCAACCAGAAAGUCCGUAAUCAUUUUAAGGGUA [A95G U122C] | 1.2
29 | GUUAACGGUCAUAGGCCAUGGAAACUAGGAGUACCAUUUCGCUGCCAGUGAAGAAAUGAACAAAGAGAAUCUGGGCCAGGCAGGCAUCAAAAGAAAUAGUCUUGCGCUCAACCAGAAAGUCUGUAAUCAUUUUAAGGGUA [C32U A67G] | 1.67
30 | GUUAACGGUCAUAGGCCAUGGAAACUAGGAGCACCAUUUCGCUGCCAGUGAAGAAAUGACCAAAGAAAAUCAGGGCCAGGCAGGCAUCAAAAGAAAUAGUCUUGCGCUCAACCAGAAAGUCUGUAAUCAUUUUAAGGGUA [A60C U72A] | 0.21
31 | GUUAACGGUCAUAGGCCAUGGAAACUAGGAGCACCAUUUCGCUGCCAGUGAAGAAUUGAACAAAGAAAAUCUGGGCCAGGCAGGCAUCAAAAGAACUAGUCUUGCGCUCAACCAGAAAGUCUGUAAUCAUUUUAAGGGUA [A56U A96C] | 0.35
32 | GUUAACGGGCAUAGGCCAUGGAAACUAGGAGCACCAUUUCGCUGCCAGUGAAGAAAUGAACAAAGAAAAUCUGGGCCAGGCAGGCAUCAAAAGAAAUAGUCUUGCGCUCAACCAGAAAAUCUGUAAUCAUUUUAAGGGUA [U9G G119A] | 1.48
33 | GUUAACGGUCAUAGGCCAUGGAAACUAGGAGCACCAUUUCGCUGCCAGUGAAGAGAUGAACAAAGAAAAUCUGGGCCAGGCAGGCAUCAAAAGAAAUAGUCUUGCGCUCAACCAGAAAGUCUGAAAUCAUUUUAAGGGUA [A55G U124A] | 0.97
34 | GUUAACGGUCAUAGGCCAUGGAAACUAGGAGCACCAUUUCGCUGCCAGUGAAGAAAUGAACAAAGAAAAUCUGGGCCAGGCAGGCAUCAAAAGAAAUAGUCUUGCGCCCAACCAGAAAGUCUGAAAUCAUUUUAAGGGUA [U108C U124A] | 0.01
35 | GUUAACGGUCAUAGGCCAUGGAAACUAGGAGCACUAUUUCGCUGCCAGUGAAGAAAUGAACAAAGAAAAUCUGGGCCAGGCAGGCACCAAAAGAAAUAGUCUUGCGCUCAACCAGAAAGUCUGUAAUCAUUUUAAGGGUA [C35U U87C] | 1
36 | GUUAACGGUCAUAGGCCAUGGAAACUAGGAGCACCAUUUCGCUGCCAGUGAAGAAAUGAACAAAGAAAAUCUGGGCCAGGCAGGCAUCAAAAGAAAUAGUCUUGCGCUCGACCAGAAAGUCUGUAAUCAUUUUAAGGGCA [A110G U139C] | 0.17
37 | GUUAACGGUCAUAGGCCAUGGAAACUAGGAGCACCAUUCCGCUGCCAGUGAAGAAACGAACAAAGAAAAUCUGGGCCAGGCAGGCAUCAAAAGAAAUAGUCUUGCGCUCAACCAGAAAGUCUGUAAUCAUUUUAAGGGUA [U39C U57C] | 1.64
38 | GUUAACGGUCAUAGGCCAUGGAAACAAGGAGCACCAUUUCGCUGCCAGUGAAGAAAUGAACAAAGAAAAUCUGGGCCAGGCAGGCAUCAAAAGAAAUAGUCUUGCGCUCAACCAGAAAGUCUGUAAUCAUUCUAAGGGUA [U26A U132C] | 0.9
39 | GUUAACGGUCAUAGGCCAUGGAAACUAGGAGCACCAUUUCGCUGCCAGUGAAGAAAUGAACAAAGAACAUCUGGGCCAGGCAGGCAUCAAAAGGAAUAGUCUUGCGCUCAACCAGAAAGUCUGUAAUCAUUUUAAGGGUA [A68C A94G] | 1.69
40 | GUUAACGGUCAUAGGCCAUGGAAACUAGGAGCACCAUUUCGCUGCCAGUGAAGAAAUGAACAAAGAAAAUCUGGGCCAGGCAGGCAUCAAGGGAAAUAGUCUUGCGCUCAACCAGAAAGUCUGUAAUCAUUUUAAGGGUA [A91G A92G] | 0.51
41 | GUUAACGGUCAUAGGCCAUGGAAACUAGGAGCACCAUUUCGCUGCCAGUGAAGAAAUGAACAAAGAAAAUCUGGGCCAGGCAGGCAGCAAAAGAAAUAGUCUCGCGCUCAACCAGAAAGUCUGUAAUCAUUUUAAGGGUA [U87G U103C] | 0.22

— the RNAGym collection of RNA variant scans (doi:10.7554/elife.90254)
